# In article PMC7794242:
# Target: HCoV-229E S glycoprotein wild-type soluble ectodomain (residues 1-1116) with C-terminal GCN4 trimerization motif (HCoV-229E) (UniProt P15423)
# Assay: cryo-EM structure; S trimer peak 2 (conformation 1, 3.21 A) and peak 3 (conformation 2, 3.55 A) samples at 0.75 mg/ml; C3 symmetry applied
substance,measurement,value
HCoV-229E S glycoprotein wild-type soluble ectodomain (residues 1-1116) with C-terminal GCN4 trimerization motif (from UniProt P15423 16-1116) (domain or fragment),stoichiometry N,3
